System: engineered chimeric receptor SEQ ID NO: 33 and its mutants (human α7-nAChR ligand binding domain / human GlyRα1 ion pore domain) in Lenti-X 293T cells
Assay: YFP fluorescence quenching anion reporter plate reader assay (percent quench, EC50)
Format: cell-based
Conditions: for YFP fluorescence quenching using CNL001 (percent quench): receptor named in row; for YFP fluorescence quenching using Facinicline, 30 nM fac: ligand Facinicline 30 nM; for YFP fluorescence quenching using Facinicline, 300 nM fac: ligand Facinicline 300 nM; for YFP fluorescence quenching using Facinicline, 30 uM fac: ligand Facinicline 30 uM; for YFP fluorescence quenching using TC-6987, 1 uM tc6987: ligand TC-6987 1 uM; for YFP fluorescence quenching using TC-6987, 10 uM tc6987: ligand TC-6987 10 uM; for YFP fluorescence quenching using TC-6987, 500 uM tc6987: ligand TC-6987 500 uM; for YFP fluorescence quenching using Varenicline, 3 nM var: ligand Varenicline 3 nM; for YFP fluorescence quenching using Varenicline, 30 nM var: ligand Varenicline 30 nM; for YFP fluorescence quenching using Varenicline, 300 nM var: ligand Varenicline 300 nM; for YFP fluorescence quenching using Varenicline, 500 nM var: ligand Varenicline 500 nM; for YFP fluorescence quenching using Varenicline, 1 uM var: ligand Varenicline 1 uM
In short: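 Lenti-X 293T cells co-expressing an anion-quenchable YFP were transiently transfected with receptor DNA, then ligand was added in NaI-substituted buffer (pH 7.2) after 30 min at 37 °C. Fluorescence was read about 2 min; percent quench = mean of last 10 s over 15 s pre-ligand baseline.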

[1] = 1 nM CNL001, first column so headed
[2] = 1 nM CNL001, second column so headed
[3] = 3 nM brd (TC-5619/Bradanicline)
[4] = 10 nM CNL001, first column so headed
[5] = 10 nM CNL001, second column so headed
[6] = 30 nM brd (TC-5619/Bradanicline)
[7] = 50 nM CNL001, first column so headed
[8] = 50 nM CNL001, second column so headed
[9] = 100 nM CNL001, first column so headed
[10] = 100 nM CNL001, second column so headed
[11] = 300 nM brd (TC-5619/Bradanicline)
[12] = 1 uM CNL001, first column so headed
[13] = 1 uM CNL001, second column so headed

B1: CODA407: engineered receptor: Y210F in SEQ ID NO: 33 (protein)
chain: MRCSPGGVWLALAASLLHVSLQGEFQRKLYKELVKNYNPLERPVANDSQPLTVYFSLSLLQIMDVDEKNQVLTTNIWLQMSWTDHYLQWNVSEYPGVKTVRFPDGQIWKPDILLYNSADERFDATFHTNVLVNSSGHCQYLPPGIFKSSCPMDLKNFPMDVQTCKLKFGSWSYGGWSLDLQMQEADISGYIPNGEWDLVGIPGKRSERFFECCKEPYPDVTFTVTMRRRMGYYLIQMYIPSLLIVILSWISFWINMDAAPARVGLGITTVLTMTTQSSGSRASLPKVSYVKAIDIWMAVCLLFVFSALLEYAAVNFVSRQHKELLRFRRKRRHHKSPMLNLFQEDEAGEGRFNFSAYGMGPACLQAKDGISVKGANNSNTTNPPPAPSKSPEEMRKLFIQRAKKIDKISRIGFPMAFLIFNMFYWIIYKIVRREDVHNQ
modifications: synthetic sequence of chimeric LGIC
- YFP fluorescence quenching using CNL001 (percent quench) [1]: −10.845%
- YFP fluorescence quenching using CNL001 (percent quench) [2]: −2.629%
- YFP fluorescence quenching using TC-5619/Bradanicline (percent quench) [3]: −0.53%
- YFP fluorescence quenching using CNL001 (percent quench) [4]: 4.66%
- YFP fluorescence quenching using CNL001 (percent quench) [5]: 12.246%
- YFP fluorescence quenching using TC-5619/Bradanicline (percent quench) [6]: 8.71%
- YFP fluorescence quenching using CNL001 (percent quench) [7]: 29.307%
- YFP fluorescence quenching using CNL001 (percent quench) [8]: 41.78%
- YFP fluorescence quenching using ABT-126 (percent quench) (50 nM abt (ABT-126)): −13.07%
- YFP fluorescence quenching using CNL001 (percent quench) [9]: 50.654%
- YFP fluorescence quenching using CNL001 (percent quench) [10]: 62.054%
- YFP fluorescence quenching (percent quench) (100 nM CNL002): −12.47%
- YFP fluorescence quenching using ABT-126 (percent quench) (100 nM abt (ABT-126)): 0.1%
- YFP fluorescence quenching using AZD-0328 (percent quench) (100 nM azd0328): 0.85%
- YFP fluorescence quenching using ABT-126 (percent quench) (300 nM abt (ABT-126)): 5.97%
- YFP fluorescence quenching using AZD-0328 (percent quench) (300 nM azd0328): 1.25%
- YFP fluorescence quenching using TC-5619/Bradanicline (percent quench) [11]: 76.26%
- YFP fluorescence quenching using CNL001 (percent quench) [12]: 81.742%
- YFP fluorescence quenching using CNL001 (percent quench) [13]: 81.304%
- YFP fluorescence quenching (percent quench) (1 uM CNL002): −3.93%
- YFP fluorescence quenching using ABT-126 (percent quench) (1 uM abt (ABT-126)): 50.23%
- YFP fluorescence quenching (percent quench) (10 uM ach (acetylcholine)): −3.75%
- YFP fluorescence quenching (percent quench) (30 uM CNL002): 80.97%
- YFP fluorescence quenching using AZD-0328 (percent quench) (30 uM azd0328): 82.08%
- YFP fluorescence quenching (percent quench) (100 uM ach (acetylcholine)): −1.6%
- YFP fluorescence quenching (percent quench) (1 mM ach (acetylcholine)): 71.65%
- YFP fluorescence quenching (percent quench) (3 mM ach (acetylcholine)): 79.09%
- YFP fluorescence quenching using Facinicline, 30 nM fac: −21.94
- YFP fluorescence quenching using Facinicline, 300 nM fac: −22.46
- YFP fluorescence quenching using Facinicline, 30 uM fac: 82.63
- YFP fluorescence quenching using TC-6987, 1 uM tc6987: −15.22
- YFP fluorescence quenching using TC-6987, 10 uM tc6987: −19.89
- YFP fluorescence quenching using TC-6987, 500 uM tc6987: −33.32
- YFP fluorescence quenching using Varenicline, 3 nM var (first column): 2.441
- YFP fluorescence quenching using Varenicline, 3 nM var (second column): 7.326
- YFP fluorescence quenching using Varenicline, 30 nM var (first column): 1.275
- YFP fluorescence quenching using Varenicline, 30 nM var (second column): 12.96
- YFP fluorescence quenching using Varenicline, 300 nM var (first column): 13.119
- YFP fluorescence quenching using Varenicline, 300 nM var (second column): 2.355
- YFP fluorescence quenching using Varenicline, 500 nM var (first column): 11.539
- YFP fluorescence quenching using Varenicline, 500 nM var (second column): 6.571
- YFP fluorescence quenching using Varenicline, 1 uM var (first column): 8.397
- YFP fluorescence quenching using Varenicline, 1 uM var (second column): 7.309

B2: CODA409: engineered receptor: Y210W in SEQ ID NO: 33 (protein)
chain: MRCSPGGVWLALAASLLHVSLQGEFQRKLYKELVKNYNPLERPVANDSQPLTVYFSLSLLQIMDVDEKNQVLTTNIWLQMSWTDHYLQWNVSEYPGVKTVRFPDGQIWKPDILLYNSADERFDATFHTNVLVNSSGHCQYLPPGIFKSSCPMDLKNFPMDVQTCKLKFGSWSYGGWSLDLQMQEADISGYIPNGEWDLVGIPGKRSERFWECCKEPYPDVTFTVTMRRRMGYYLIQMYIPSLLIVILSWISFWINMDAAPARVGLGITTVLTMTTQSSGSRASLPKVSYVKAIDIWMAVCLLFVFSALLEYAAVNFVSRQHKELLRFRRKRRHHKSPMLNLFQEDEAGEGRFNFSAYGMGPACLQAKDGISVKGANNSNTTNPPPAPSKSPEEMRKLFIQRAKKIDKISRIGFPMAFLIFNMFYWIIYKIVRREDVHNQ
modifications: synthetic sequence of chimeric LGIC
- YFP fluorescence quenching using CNL001 (percent quench) [1]: −8.914%
- YFP fluorescence quenching using CNL001 (percent quench) [2]: −14.319%
- YFP fluorescence quenching using TC-5619/Bradanicline (percent quench) (1 nM brd (TC-5619/Bradanicline)): −13.45%
- YFP fluorescence quenching using TC-5619/Bradanicline (percent quench) [3]: −0.64%
- YFP fluorescence quenching using CNL001 (percent quench) [4]: −1.444%
- YFP fluorescence quenching using CNL001 (percent quench) [5]: 4.393%
- YFP fluorescence quenching using TC-5619/Bradanicline (percent quench) (10 nM brd (TC-5619/Bradanicline)): 37.3%
- YFP fluorescence quenching using TC-5619/Bradanicline (percent quench) [6]: 76.36%
- YFP fluorescence quenching using CNL001 (percent quench) [7]: 11.897%
- YFP fluorescence quenching using CNL001 (percent quench) [8]: 11.434%
- YFP fluorescence quenching using ABT-126 (percent quench) (50 nM abt (ABT-126)): 8.23%
- YFP fluorescence quenching using CNL001 (percent quench) [9]: 12.719%
- YFP fluorescence quenching using CNL001 (percent quench) [10]: 16.053%
- YFP fluorescence quenching (percent quench) (100 nM CNL002): −14.92%
- YFP fluorescence quenching using ABT-126 (percent quench) (100 nM abt (ABT-126)): 55.53%
- YFP fluorescence quenching using AZD-0328 (percent quench) (100 nM azd0328): −6.57%
- YFP fluorescence quenching using TC-5619/Bradanicline (percent quench) (100 nM brd (TC-5619/Bradanicline)): 72.72%
- YFP fluorescence quenching using ABT-126 (percent quench) (300 nM abt (ABT-126)): 74.82%
- YFP fluorescence quenching using AZD-0328 (percent quench) (300 nM azd0328): −4.84%
- YFP fluorescence quenching using TC-5619/Bradanicline (percent quench) [11]: 75.47%
- YFP fluorescence quenching using ABT-126 (percent quench) (500 nM abt (ABT-126)): 77.39%
- YFP fluorescence quenching using CNL001 (percent quench) [12]: 14.077%
- YFP fluorescence quenching using CNL001 (percent quench) [13]: 15.495%
- YFP fluorescence quenching (percent quench) (1 uM CNL002): −0.85%
- YFP fluorescence quenching using ABT-126 (percent quench) (1 uM abt (ABT-126)): 77.77%
- YFP fluorescence quenching using TC-5619/Bradanicline (percent quench) (1 uM brd (TC-5619/Bradanicline)): 78.73%
- YFP fluorescence quenching using ABT-126 (percent quench) (3 uM abt (ABT-126)): 69.33%
- YFP fluorescence quenching using ABT-126 (percent quench) (10 uM abt (ABT-126)): 74.79%
- YFP fluorescence quenching (percent quench) (10 uM ach (acetylcholine)): −5.43%
- YFP fluorescence quenching (percent quench) (30 uM CNL002): 29.62%
- YFP fluorescence quenching using ABT-126 (percent quench) (30 uM abt (ABT-126)): 75.61%
- YFP fluorescence quenching using AZD-0328 (percent quench) (30 uM azd0328): 81.64%
- YFP fluorescence quenching using ABT-126 (percent quench) (50 uM abt (ABT-126)): 75.72%
- YFP fluorescence quenching using ABT-126 (percent quench) (100 uM abt (ABT-126)): 78.52%
- YFP fluorescence quenching (percent quench) (100 uM ach (acetylcholine)): 17.14%
- YFP fluorescence quenching (percent quench) (1 mM ach (acetylcholine)): 78.84%
- YFP fluorescence quenching (percent quench) (3 mM ach (acetylcholine)): 78.55%
- YFP fluorescence quenching using Facinicline, 30 nM fac: −10.93
- YFP fluorescence quenching using Facinicline, 300 nM fac: −5.82
- YFP fluorescence quenching using Facinicline, 10 uM fac (ligand Facinicline 10 uM): 60.97
- YFP fluorescence quenching using Facinicline, 30 uM fac: 57.77
- YFP fluorescence quenching using TC-6987, 1 uM tc6987: 62.82
- YFP fluorescence quenching using TC-6987, 10 uM tc6987: 78.66
- YFP fluorescence quenching using TC-6987, 500 uM tc6987: 70.35
- YFP fluorescence quenching using Varenicline, 3 nM var (first column): 7.776
- YFP fluorescence quenching using Varenicline, 3 nM var (second column): −2.964
- YFP fluorescence quenching using Varenicline, 30 nM var (first column): −5.568
- YFP fluorescence quenching using Varenicline, 30 nM var (second column): 3.024
- YFP fluorescence quenching using Varenicline, 300 nM var (first column): 2.815
- YFP fluorescence quenching using Varenicline, 300 nM var (second column): 3.06
- YFP fluorescence quenching using Varenicline, 500 nM var (first column): 1.766
- YFP fluorescence quenching using Varenicline, 500 nM var (second column): 2.819
- YFP fluorescence quenching using Varenicline, 1 uM var (first column): 1.844
- YFP fluorescence quenching using Varenicline, 1 uM var (second column): −4.059

Reference: patent US20250152742A1, “COMPOSITIONS AND METHODS FOR NEUROLOGICAL DISEASES” (Trames Bio, Inc., priority 2022, published 2025)
